Assay results: patent US20140294817A1

Assays:
Fcγ-receptor IIb (mice) = Fcγ-receptor IIb (mice) (UniProt P08101); experiment: flow cytometry saturation binding on HeLa cells expressing RFP-tagged FcγRIIb (FIG. 61B, right panel)
Fcγ-receptor IV (mice) = experiment: flow cytometry saturation binding on HeLa cells expressing RFP-tagged FcγRIV (FIG. 61D, right panel)
Fcγ-receptor I (mice) = Fcγ-receptor I (mice) (UniProt P26151); experiment: flow cytometry saturation binding on HeLa cells expressing RFP-tagged FcγRI (FIG. 61A, right panel)
Sequence of Fcγ-receptor I (mice) (P26151 25-404): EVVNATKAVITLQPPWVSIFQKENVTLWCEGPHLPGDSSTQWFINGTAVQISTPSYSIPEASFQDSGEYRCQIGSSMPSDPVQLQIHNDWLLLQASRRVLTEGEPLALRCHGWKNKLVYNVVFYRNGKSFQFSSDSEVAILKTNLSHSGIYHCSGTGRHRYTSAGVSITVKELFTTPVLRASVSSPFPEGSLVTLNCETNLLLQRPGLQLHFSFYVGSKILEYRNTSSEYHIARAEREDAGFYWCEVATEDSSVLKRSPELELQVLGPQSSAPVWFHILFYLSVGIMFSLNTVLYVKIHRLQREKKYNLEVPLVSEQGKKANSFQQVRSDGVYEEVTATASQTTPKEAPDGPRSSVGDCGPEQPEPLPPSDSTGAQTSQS

Fcγ-receptor III (mice) = Fcγ-receptor III (mice) (UniProt P08508); experiment: flow cytometry saturation binding on HeLa cells expressing RFP-tagged FcγRIII (FIG. 61C, right panel)
Sequence of Fcγ-receptor III (mice) (P08508 31-261): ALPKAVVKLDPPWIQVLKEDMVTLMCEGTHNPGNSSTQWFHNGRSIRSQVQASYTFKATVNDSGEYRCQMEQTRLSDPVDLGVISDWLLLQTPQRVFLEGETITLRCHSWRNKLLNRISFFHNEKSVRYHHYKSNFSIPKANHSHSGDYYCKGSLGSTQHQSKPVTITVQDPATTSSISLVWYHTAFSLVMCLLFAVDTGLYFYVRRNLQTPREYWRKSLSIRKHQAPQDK

Sequence of Fcγ-receptor IIb (mice) (P08101 30-330): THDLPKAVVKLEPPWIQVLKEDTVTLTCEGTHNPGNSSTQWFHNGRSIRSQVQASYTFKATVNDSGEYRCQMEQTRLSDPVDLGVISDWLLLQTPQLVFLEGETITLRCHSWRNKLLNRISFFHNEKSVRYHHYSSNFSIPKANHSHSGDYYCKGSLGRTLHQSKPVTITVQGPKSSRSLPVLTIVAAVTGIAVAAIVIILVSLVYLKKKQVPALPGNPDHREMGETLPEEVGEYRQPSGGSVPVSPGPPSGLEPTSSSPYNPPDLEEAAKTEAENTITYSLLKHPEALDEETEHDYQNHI
Sequence of Fcγ-receptor IV (mice) (A0A0B4J1G0 21-249): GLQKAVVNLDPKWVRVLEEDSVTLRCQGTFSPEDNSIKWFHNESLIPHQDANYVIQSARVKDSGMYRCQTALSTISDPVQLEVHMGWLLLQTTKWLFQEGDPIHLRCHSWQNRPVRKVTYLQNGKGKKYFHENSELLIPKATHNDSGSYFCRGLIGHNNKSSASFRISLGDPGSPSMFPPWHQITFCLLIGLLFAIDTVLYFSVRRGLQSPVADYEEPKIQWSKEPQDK

## whole rabbit IgG (antibody)
Fcγ-receptor IIb (mice)
  Kd: 0.609 µM
Fcγ-receptor IV (mice)
  Kd: 1.22 µM
Fcγ-receptor I (mice)
  Kd: 0.201 µM
Fcγ-receptor III (mice)
  Kd: 2.33 µM
